Test results from patent publication US20140349310A1 (Eli Lilly, published 2014).

B1: anti-c-Met therapeutic antibody C8-H241 (human IgG4 subtype) (antibody, V domains shown)
VH: QVQLVQSGAEVKKPGASVKVSCKASGYTFTDYYMHWVRQAPGQGLEWMGRVNPNRRGTTYNQKFEGRVTMTTDTSTSTAYMELRSLRSDDTAVYYCARANWLDYWGQGTTVTVSS
VL: DIQMTQSPSSLSASVGDRVTITCSVSSSVSSIYLHWYQQKPGKAPKLLIYSTSNLASGVPSRFSGSGSGTDFTLTISSLQPEDFATYYCQVYSGYPLTFGGGTKVEIKR
notes: also called mAb C8-H241

Assays:
[1] = molecular target: T1, human c-Met ECD expressed as Fc fusion protein with a flag- and His-tag (Flis-tag) at the C-terminus of the Fc (human); assay: SPR (BIAcore): antibody injected over c-Met-ECD-Fc-Flis captured at 130 Ru; the sequential experiment also includes C8-H241
T1 construct: also called human c-Met-ECD-Fc-Flis; c-Met-ECD-Fc-Flis
T1 sequence (chain, as listed by the source): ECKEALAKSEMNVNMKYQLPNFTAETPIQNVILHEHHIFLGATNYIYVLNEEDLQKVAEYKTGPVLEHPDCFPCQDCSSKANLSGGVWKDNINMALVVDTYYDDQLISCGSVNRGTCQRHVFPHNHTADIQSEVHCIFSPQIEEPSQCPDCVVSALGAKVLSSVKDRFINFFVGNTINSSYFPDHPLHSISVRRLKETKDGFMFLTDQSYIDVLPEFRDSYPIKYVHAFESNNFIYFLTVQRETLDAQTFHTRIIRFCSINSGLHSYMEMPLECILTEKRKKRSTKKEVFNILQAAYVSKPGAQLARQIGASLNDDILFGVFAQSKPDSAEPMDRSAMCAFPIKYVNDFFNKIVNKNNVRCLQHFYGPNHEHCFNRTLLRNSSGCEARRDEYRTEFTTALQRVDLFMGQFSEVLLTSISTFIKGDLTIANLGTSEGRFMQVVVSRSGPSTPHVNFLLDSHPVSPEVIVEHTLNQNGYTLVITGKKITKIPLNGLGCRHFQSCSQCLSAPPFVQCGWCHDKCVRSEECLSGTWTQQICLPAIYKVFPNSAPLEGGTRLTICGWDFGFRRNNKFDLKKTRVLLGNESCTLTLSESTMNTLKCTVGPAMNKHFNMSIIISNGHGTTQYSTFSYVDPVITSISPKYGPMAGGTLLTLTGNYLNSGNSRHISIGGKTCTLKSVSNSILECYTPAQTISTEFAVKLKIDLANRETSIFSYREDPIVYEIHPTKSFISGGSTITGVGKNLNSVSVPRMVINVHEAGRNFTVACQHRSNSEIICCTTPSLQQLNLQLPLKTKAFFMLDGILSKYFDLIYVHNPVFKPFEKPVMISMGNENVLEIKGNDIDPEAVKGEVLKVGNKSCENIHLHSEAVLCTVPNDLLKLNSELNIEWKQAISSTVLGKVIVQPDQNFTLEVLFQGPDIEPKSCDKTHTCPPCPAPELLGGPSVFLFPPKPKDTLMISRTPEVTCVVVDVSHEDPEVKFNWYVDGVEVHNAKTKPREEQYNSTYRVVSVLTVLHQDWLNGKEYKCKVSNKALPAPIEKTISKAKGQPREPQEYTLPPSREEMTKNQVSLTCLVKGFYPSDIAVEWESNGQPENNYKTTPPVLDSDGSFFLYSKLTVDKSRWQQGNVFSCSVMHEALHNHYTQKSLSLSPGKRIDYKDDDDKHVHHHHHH

[2] = molecular target: B1; assay: ELISA control: 2 µg/mL C8-H241 (human IgG4 subtype) coated, no cMet ECD, 0.5 µg/mL biotinylated OptD11 detection
[3] = molecular target: T2, cynomolgus monkey c-Met ECD expressed as Fc fusion protein with a flag- and His-tag (Flis-tag) at the … (cynomolgus monkey); assay: SPR (Biacore): antibody captured by goat anti-mouse Fc, c-Met ECD-Fc-Flis as analyte, 25 C, 1:1 Langmuir model
T2 construct: also called cynomolgus monkey c-Met-Flis-Fc ECD
T2 sequence (chain, as listed by the source limits assumed): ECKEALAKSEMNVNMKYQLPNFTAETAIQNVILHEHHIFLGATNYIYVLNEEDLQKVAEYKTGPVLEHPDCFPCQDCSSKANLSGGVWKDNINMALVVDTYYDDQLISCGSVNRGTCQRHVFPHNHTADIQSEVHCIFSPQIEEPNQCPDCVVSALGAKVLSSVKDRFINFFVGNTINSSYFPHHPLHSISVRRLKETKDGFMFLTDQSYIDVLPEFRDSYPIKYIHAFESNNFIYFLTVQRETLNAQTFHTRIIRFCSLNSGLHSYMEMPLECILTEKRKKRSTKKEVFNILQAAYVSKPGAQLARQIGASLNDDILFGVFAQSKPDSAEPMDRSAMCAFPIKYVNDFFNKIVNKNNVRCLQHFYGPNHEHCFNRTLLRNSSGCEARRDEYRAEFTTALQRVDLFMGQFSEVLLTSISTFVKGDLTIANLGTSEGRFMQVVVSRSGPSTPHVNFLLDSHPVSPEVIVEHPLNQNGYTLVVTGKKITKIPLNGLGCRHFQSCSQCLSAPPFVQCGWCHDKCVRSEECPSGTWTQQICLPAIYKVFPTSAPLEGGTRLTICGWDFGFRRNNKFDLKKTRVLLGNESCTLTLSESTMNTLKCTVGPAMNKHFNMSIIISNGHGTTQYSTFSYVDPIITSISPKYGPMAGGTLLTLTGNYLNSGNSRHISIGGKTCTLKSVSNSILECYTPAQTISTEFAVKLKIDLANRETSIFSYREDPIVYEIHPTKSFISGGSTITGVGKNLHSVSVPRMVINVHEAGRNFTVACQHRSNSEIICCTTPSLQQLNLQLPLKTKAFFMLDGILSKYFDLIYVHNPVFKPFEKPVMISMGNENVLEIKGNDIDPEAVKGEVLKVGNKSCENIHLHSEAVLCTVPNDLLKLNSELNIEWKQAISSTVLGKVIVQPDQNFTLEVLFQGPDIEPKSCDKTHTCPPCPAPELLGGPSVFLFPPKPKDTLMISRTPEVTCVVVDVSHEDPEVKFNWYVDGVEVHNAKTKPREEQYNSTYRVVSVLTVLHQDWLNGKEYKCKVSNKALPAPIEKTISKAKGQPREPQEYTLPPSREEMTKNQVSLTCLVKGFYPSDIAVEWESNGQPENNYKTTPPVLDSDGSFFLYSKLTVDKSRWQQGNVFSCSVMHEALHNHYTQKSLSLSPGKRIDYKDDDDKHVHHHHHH
Method: (§1) Briefly described, the anti-c-Met monoclonal antibody of the invention may be dissolved in HBS-EP buffer (150 mM sodium chloride, 3 mM EDTA, 0.005% (w/v) surfactant P-20, and 10 mM N-2-hydroxyethylpiperazine-N′-2-ethanesulfonic acid (HEPES) at pH 7.4; #BR-1001-88). Goat anti-mouse Fc antibody is immobilized on flow cells 1 to 4 of a CM5 sensor chip at a level of 4000 response units (RUs) using amine coupling chemistry to capture anti-c-Met antibodies.
(§2) Binding may be evaluated using multiple analytical cycles. Each cycle is performed at a flow rate of 50 μl/minute, and may consist of the following steps: injection of about 10 μl of an anti-c-Met monoclonal antibody at 10 μg/ml aiming at a capture of 40-100 RUs, injection of 250 μl of human or cynomolgus monkey c-Met-Flis-Fc ECD (starting at 100 nM and using two-fold serial dilutions for each cycle) followed by 20 minutes for dissociation, and regeneration using about 30 μl of 10 mM glycine hydrochloride, pH 1.5. Association and dissociation rates for each cycle may be evaluated using a “1:1 (Langmuir) binding” model in the BIAevaluation software 4.1.

[4] = molecular target: T1, human c-Met ECD expressed as Fc fusion …; assay: as above
Method: as §1, §2

[5] = molecular target: T1, human c-Met ECD expressed as Fc fusion …; assay: SPR (BIAcore): antibody injected over c-Met-ECD-Fc-Flis captured at 130 Ru

Binder | Stoichiometry (mAb to cMet-Fc) [1] | binding result [2] | Kd [3] | koff [3] | kon [3] | Kd [4] | koff [4] | kon [4] | Stoichiometry (mAb to cMet-Fc) [5]
anti-c-Met monoclonal antibody OptD11 (mouse IgG1 subtype) (antibody, V domains shown, Murine IgG1; also called mAb OptD11; OptD11 c-Met antibody) VH: EVQLQQSGPELVKPGASVRISCKASGYTFTSRYIHWMKQRPGQGLEWIGWIYPVTGDTYYNEKFKGKATLTSDKSSSTAYMQISSLTSDDSAVYFCARGGGMFYYWGQGTLVTVSA VL: ETTVTQSPALMAASPGEKVTITCSVSSSISSTNLHWYQQKSETSPKPWIYGTSNLASGVPVRFGGSGSGTSYSLTISSMEAEDAATYYCQQWSSYPYTFGGGTKLEIKR | 0.89 | no binding (tested: 0.5 µg/mL) | 0.35 nM | 4.7e-05 s⁻¹ | 130000 M⁻¹ s⁻¹ | 0.12 nM | 9e-06 s⁻¹ | 160000 M⁻¹ s⁻¹ | 
B1 |  |  |  |  |  |  |  |  | 0.91
